Source: the supplement of paper PMC11246515
± gives the standard deviation of the averaged measurements.

Experiment: total protein half-life in vivo (active degradation + dilution); higher = more stable protein
[1] = E. coli NCM3722 delta-clpP delta-lon delta-hslV, growth: N-lim chemostat, doubling time 6 h
[2] = E. coli NCM3722 delta-clpP, growth: N-lim chemostat, doubling time 6 h
[3] = E. coli NCM3722 delta-hslV, growth: N-lim chemostat, doubling time 6 h
[4] = E. coli NCM3722 delta-lon, growth: N-lim chemostat, doubling time 6 h
[5] = E. coli NCM3722 delta-smpB, growth: N-lim chemostat, doubling time 6 h
[6] = wild type E. coli NCM3722, growth: C-lim chemostat, doubling time 3 h
[7] = wild type E. coli NCM3722, growth: C-lim chemostat, doubling time 6 h
[8] = wild type E. coli NCM3722, growth: C-lim chemostat, doubling time 12 h
[9] = wild type E. coli NCM3722, growth: N-lim chemostat, doubling time 6 h
[10] = wild type E. coli NCM3722, growth: N-lim chemostat, doubling time 12 h
[11] = wild type E. coli NCM3722, growth: P-lim chemostat, doubling time 6 h
[12] = wild type E. coli NCM3722, growth: P-lim chemostat, doubling time 12 h

| Sequence | total protein half-life in vivo [1] [h] | total protein half-life in vivo [2] [h] | total protein half-life in vivo [3] [h] | total protein half-life in vivo [4] [h] | total protein half-life in vivo [5] [h] | total protein half-life in vivo [6] [h] | total protein half-life in vivo [7] [h] | total protein half-life in vivo [8] [h] | total protein half-life in vivo [9] [h] | total protein half-life in vivo [10] [h] | total protein half-life in vivo [11] [h] | total protein half-life in vivo [12] [h] |
| --- | --- | --- | --- | --- | --- | --- | --- | --- | --- | --- | --- | --- |
| MAKTAAALHILVKEEKLALDLLEQIKNGADFGKLAKKHSICPSGKRGGDLGEFRQGQMVPAFDKVVFSCPVLEPTGPLHTQFGYHIIKVLYRN [P0A9L5] | 6.6 ± 0.64 | 4.65 ± 1.5 | 4.743 ± 0.043 | 6.25 ± 0.67 | 6.01 ± 0.7 | 3.05 ± 0.21 | 5.57 ± 0.14 | 9.11 ± 0.34 | 4.22 ± 0.34 | 7.37 ± 0.48 | 4.54 ± 1.2 | 10.6 ± 0.12 |
| MKTLIARHKAGEHIGICSVCSAHPLVIEAALAFDRNSTRKVLIEATSNQVNQFGGYTGMTPADFREFVFTIADKVGFARERIILGGDHLGPNCWQQENADAAMEKSVELVKEYVRAGFSKIHLDASMSCAGDPIPLAPETVAERAAVLCFAAESVATDCQREQLSYVIGTEVPVPGGEASAIQSVHITHVEDAANTLRTHQKAFIARGLTEALTRVIAIVVQPGVEFDHSNIIHYQPQEAQPLAQWIENTRMVYEAHSTDYQTRTAYWELVRDHFAILKVGPALTFALREAIFALAQIEQELIAPENRSGCLAVIEEVMLDEPQYWKKYYRTGFNDSLLDIRYSLSDRIRYYWPHSRIKNSVETMMVNLEGVDIPLGMISQYLPKQFERIQSGELSAIPHQLIMDKIYDVLRAYRYGCAE [P0C8J8] | 5.59 |  |  |  |  |  | 2.97 |  | > 8 |  |  |  |
| MTAELLVNVTPSETRVAYIDGGILQEIHIEREARRGIVGNIYKGRVSRVLPGMQAAFVDIGLDKAAFLHASDIMPHTECVAGEEQKQFTVRDISELVRQGQDLMVQVVKDPLGTKGARLTTDITLPSRYLVFMPGASHVGVSQRIESESERERLKKVVAEYCDEQGGFIIRTAAEGVGEAELASDAAYLKRVWTKVMERKKRPQTRYQLYGELALAQRVLRDFADAELDRIRVDSRLTYEALLEFTSEYIPEMTSKLEHYTGRQPIFDLFDVENEIQRALERKVELKSGGYLIIDQTEAMTTVDINTGAFVGHRNLDDTIFNTNIEATQAIARQLRLRNLGGIIIIDFIDMNNEDHRRRVLHSLEQALSKDRVKTSVNGFSALGLVEMTRKRTRESIEHVLCNECPTCHGRGTVKTVETVCYEIMREIVRVHHAYDSDRFLVYASPAVAEALKGEESHSLAEVEIFVGKQVKVQIEPLYNQEQFDVVMM [P0A9J0] | 3.85 ± 0.3 | 2.58 ± 0.087 | 3.04 ± 0.55 | 3.28 ± 0.38 | 2.62 ± 0.21 | 3.09 ± 0.69 | 4.36 ± 0.16 | 8.57 ± 0.57 | 2.6 ± 0.14 | 3.45 ± 0.073 | 5.69 ± 0.42 | 10.35 ± 0.087 |
| MSNIWSKEETLWSFALYGTAVGAGTLFLPIQLGSAGAVVLFITALVAWPLTYWPHKALCQFILSSKTSAGEGITGAVTHYYGKKIGNLITTLYFIAFFVVVLIYAVAITNSLTEQLAKHMVIDLRIRMLVSLGVVLILNLIFLMGRHATIRVMGFLVFPLIAYFLFLSIYLVGSWQPDLLTTQVEFNQNTLHQIWISIPVMVFAFSHTPIISTFAIDRREKYGEHAMDKCKKIMKVAYLIICISVLFFVFSCLLSIPPSYIEAAKEEGVTILSALSMLPNAPAWLSISGIIVAVVAMSKSFLGTYFGVIEGATEVVKTTLQQVGVKKSRAFNRALSIMLVSLITFIVCCINPNAISMIYAISGPLIAMILFIMPTLSTYLIPALKPWRSIGNLITLIVGILCVSVMFFS |  |  |  |  | 5.13 |  |  |  |  |  |  |  |
| MSKRRYLTGKEVQAMMQAVCYGATGARDYCLILLAYRHGMRISELLDLHYQDLDLNEGRINIRRLKNGFSTVHPLRFDEREAVERWTQERANWKGADRTDAIFISRRGSRLSRQQAYRIIRDAGIEAGTVTQTHPHMLRHACGYELAERGADTRLIQDYLGHRNIRHTVRYTASNAARFAGLWERNNLINEKLKREEV [P0ADH7] | 4.85 ± 0.3 |  |  |  | 1.18 | 0.333 |  |  |  |  |  |  |
| MAGNVQEKQLRWYNIALMSFITVWGFGNVVNNYANQGLVVVFSWVFIFALYFTPYALIVGQLGSTFKDGKGGVSTWIKHTMGPGLAYLAAWTYWVVHIPYLAQKPQAILIALGWAMKGDGSLIKEYSVVALQGLTLVLFIFFMWVASRGMKSLKIVGSVAGIAMFVMSLLYVAMAVTAPAITEVHIATTNITWETFIPHIDFTYITTISMLVFAVGGAEKISPYVNQTRNPGKEFPKGMLCLAVMVAVCAILGSLAMGMMFDSRNIPDDLMTNGQYYAFQKLGEYYNMGNTLMVIYAIANTLGQVAALVFSIDAPLKVLLGDADSKYIPASLCRTNASGTPVNGYFLTLVLVAILIMLPTLGIGDMNNLYKWLLNLNSVVMPLRYLWVFVAFIAVVRLAQKYKPEYVFIRNKPLAMTVGIWCFAFTAFACLTGIFPKMEAFTAEWTFQLALNVATPFVLVGLGLIFPLLARKANSK |  |  |  |  |  |  | 6.93 |  |  |  |  |  |
| MAQRDYVRRSQPAPSRRKKSTSRKKQRNLPAVSPAMVAIAAAVLVTFIGGLYFITHHKKEESETLQSQKVTGNGLPPKPEERWRYIKELESRQPGVRAPTEPSAGGEVKTPEQLTPEQRQLLEQMQADMRQQPTQLVEVPWNEQTPEQRQQTLQRQRQAQQLAEQQRLAQQSRTTEQSWQQQTRTSQAAPVQAQPRQSKPASSQQPYQDLLQTPAHTTAQSKPQQAAPVARAADAPKPTAEKKDERRWMVQCGSFRGAEQAETVRAQLAFEGFDSKITTNNGWNRVVIGPVKGKENADSTLNRLKMAGHTNCIRLAAGG | 4.824 ± 0.04 | 6.54 ± 1.9 | 5.87 ± 0.74 | 5.94 ± 0.43 | 4.76 ± 0.2 | 3 ± 0.038 | 5.351 ± 0.053 | 9.17 ± 0.79 | 5.27 ± 0.25 | 10.2 ± 0.24 | 4.421 ± 0.02 | 9.11 ± 0.63 |
| MIDLYFAPTPNGHKITLFLEEAELDYRLIKVDLGKGGQFRPEFLRISPNNKIPAIVDHSPADGGEPLSLFESGAILLYLAEKTGLFLSHETRERAATLQWLFWQVGGLGPMLGQNHHFNHAAPQTIPYAIERYQVETQRLYHVLNKRLENSPWLGGENYSIADIACWPWVNAWTRQRIDLAMYPAVKNWHERIRSRPATGQALLKAQLGDERSDS |  | 4.37 ± 1.4 | 4.61 ± 1.6 | 4.28 ± 0.48 | 2.94 ± 1.1 | 3.27 ± 0.89 | 4.84 ± 0.4 | 9.73 ± 0.75 | 4.02 ± 1.1 | 6.01 ± 0.55 | 5.6483 ± 0.0048 | 11.48 ± 0.07 |
| MNNPAMTIKGEQAKKQLIAAALAQFGEYGMNATTREIAAQAGQNIAAITYYFGSKEDLYLACAQWIADFIGEQFRPHAEEAERLFAQPQPDRAAIRELILRACRNMIKLLTQDDTVNLSKFISREQLSPTAAYHLVHEQVISPLHSHLTRLIAAWTGCDANDTRMILHTHALIGEILAFRLGKETILLRTGWTAFDEEKTELINQTVTCHIDLILQGLSQRSL [P0ACU0] | 5.84 ± 0.3 | 5.34 ± 0.68 | 4.74 ± 0.24 |  | 4.47 ± 0.15 | 2.49 ± 0.42 | 5.25 ± 0.066 |  | 4.76 ± 0.33 | 7.67 ± 0.31 | 4.47 ± 0.36 | 10.4 ± 0.78 |
| MSQLVYFSSSSENTQRFIERLGLPAVRIPLNERERIQVDEPYILIVPSYGGGGTAGAVPRQVIRFLNDEHNRALLRGVIASGNRNFGEAYGRAGDVIARKCGVPWLYRFELMGTQSDIENVRKGVTEFWQRQPQNA [P0A772] | 4.46 ± 0.33 |  |  |  |  |  |  |  |  |  |  |  |
| MTNYSLRARMMILILAPTVLIGLLLSIFFVVHRYNDLQRQLEDAGASIIEPLAVSTEYGMSLQNRESIGQLISVLHRRHSDIVRAISVYDENNRLFVTSNFHLDPSSMQLGSNVPFPRQLTVTRDGDIMILRTPIISESYSPDESPSSDAKNSQNMLGYIALELDLKSVRLQQYKEIFISSVMMLFCIGIALIFGWRLMRDVTGPIRNMVNTVDRIRRGQLDSRVEGFMLGELDMLKNGINSMAMSLAAYHEEMQHNIDQATSDLRETLEQMEIQNVELDLAKKRAQEAARIKSEFLANMSHELRTPLNGVIGFTRLTLKTELTPTQRDHLNTIERSANNLLAIINDVLDFSKLEAGKLILESIPFPLRSTLDEVVTLLAHSSHDKGLELTLNIKSDVPDNVIGDPLRLQQIITNLVGNAIKFTENGNIDILVEKRALSNTKVQIEVQIRDTGIGIPERDQSRLFQAFRQADASISRRHGGTGLGLVITQKLVNEMGGDISFHSQPNRGSTFWFHINLDLNPNIIIEGPSTQCLAGKRLAYVEPNSAAAQCTLDILSETPLEVVYSPTFSALPPAHYDMMLLGIAVTFREPLTMQHERLAKAVSMTDFLMLALPCHAQVNAEKLKQDGIGACLLKPLTPTRLLPALTEFCHHKQNTLLPVTDESKLAMTVMAVDDNPANLKLIGALLEDMVQHVELCDSGHQAVERAKQMPFDLILMDIQMPDMDGIRACELIHQLPHQQQTPVIAVTAHAMAGQKEKLLGAGMSDYLAKPIEEERLHNLLLRYKPGSGISSRVVTPEVNEIVVNPNATLDWQLALRQAAGKTDLARDMLQMLLDFLPEVRNKVEEQLVGENPEGLVDLIHKLHGSCGYSGVPRMKNLCQLIEQQLRSGTKEEDLEPELLELLDEMDNVAREASKILG [P0AEC5] | 6.36 ± 0.23 | 5.96 ± 0.43 | 6.35 ± 0.93 | 6.05 ± 1.2 | 5.8 ± 0.066 | 3.45 ± 0.058 | 5.985 ± 0.046 | 10.5 ± 1.6 |  | 13.1 ± 0.83 | 6.32 ± 0.066 | 11.4 ± 0.16 |
| MQVKTQSCVVAGKKTVAVTEQTIDWNNNGTLVQITRGGICGSDLHYYQEGKVGNFMIKAPMVLGHEVIGKVIHSDSSELHEGQTVAINPSKPCGHCKYCIEHNENQCTDMRFFGSAMYFPHVDGGFTRYKMVETSQCVPYPAKADEKVMAFAEPLAVAIHAAHQAGELQGKRVFISGVGPIGCLIVSAVKTLGAAEIVCADVSPRSLSLGKEMGADVLVNPQNDDMDHWKAEKGYFDVSFEVSGHPSSVNTCLEVTRARGVMVQVGMGGAMAEFPMMTLIGKEISLRGSFRFTSEFNTAVSWLANGVINPLPLLSAEYPFTDLEEALRFAGDKTQAAKVQLVF |  |  |  |  |  | 1.348 ± 0.0073 | 2.71 | 5.81 |  |  |  |  |
| MMKLMFASDIHGSLPATERVLELFAQSGAQWLVILGDVLNHGPRNALPEGYAPAKVAERLNEVAHKVIAVRGNCDSEVDQMLLHFPITAPWQQVLLEKQRLFLTHGHLFGPENLPALNQNDVLVYGHTHLPVAEQRGEIFHFNPGSVSIPKGGNPASYGMLDNDVLSVIALNDQSIIAQVAINP |  | 4.01 ± 0.21 | 3.75 ± 0.28 | 4.04 ± 0.35 | 3.97 ± 0.34 | 2.7 ± 0.24 | 5.48 ± 0.14 | 9.4066 ± 0.0045 | 4 ± 0.66 | 6.84 ± 0.35 | 5.32 ± 0.64 | 10.1 ± 0.38 |
| MTDNTRLRIAMQKSGRLSDDSRELLARCGIKINLHTQRLIAMAENMPIDILRVRDDDIPGLVMDGVVDLGIIGENVLEEELLNRRAQGEDPRYFTLRRLDFGGCRLSLATPVDEAWDGPLSLNGKRIATSYPHLLKRYLDQKGISFKSCLLNGSVEVAPRAGLADAICDLVSTGATLEANGLREVEVIYRSKACLIQRDGEMEESKQQLIDKLLTRIQGVIQARESKYIMMHAPTERLDEVIALLPGAERPTILPLAGDQQRVAMHMVSSETLFWETMEKLKALGASSILVLPIEKMME | 3.9 ± 1 | 2.97 ± 0.12 | 3.093 ± 0.014 | 5.11 ± 1.9 | 3.38 ± 0.042 | 2.99 ± 0.52 | 4.94 ± 0.53 | 7.58 ± 0.31 | 3.29 ± 0.1 | 4.73 ± 0.14 | 5.32 ± 0.63 | 11.2 ± 0.66 |
